Experimental data as given in the supplement of paper PMC11865577.

How the values were obtained:
Test in all cases: pull-down binding Z-score (relative to library population); higher = stronger binding
TO-N3 (biotin conjugate) = details: RNA library: Library-2
How it was run: (§1)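 Biotin-conjugated small molecule (100 pmol) on streptavidin beads was incubated with 1 μg of heat-folded Cy5- or Cy3-end-labelled RNA library in phosphate/NaCl/KCl buffer at 25 °C for 60 min. Following three washes, RNA was eluted with hot SDS and hybridised at 55.5 °C for 20 h to a DNA barcode microarray. The binding value is a Z-score computed from the library mean and standard deviation, after subtraction of beads without compound and averaging of barcoded replicate probes with the highest and lowest excluded.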

[1] = tested on: TO-3-N3-2 (biotin conjugate); details: RNA library: Library-2
How it was run: as §1

[2] = tested on: TO-3-N3 (biotin conjugate); details: RNA library: Library-2
How it was run: as §1

[3] = tested on: TO-N3-2 (biotin conjugate); details: RNA library: Library-2
How it was run: as §1

[4] = tested on: G-clamp-N3 (biotin conjugate); details: RNA library: Library-1 (pre-miRNA loops + repeats)
How it was run: as §1

## CGCUGCCUGGAAUUAACCCCGCUGUG [hsa-mir-636]
TO-N3 (biotin conjugate)
  pull-down binding Z-score: 0.517
[1]
  pull-down binding Z-score: -0.249
[2]
  pull-down binding Z-score: 0.493
[3]
  pull-down binding Z-score: 0.891
[4]
  pull-down binding Z-score: -1.15

## CCCAUAUGGACCUGCUAAGCUAUGGA [hsa-mir-1-1]
TO-N3 (biotin conjugate)
  pull-down binding Z-score: 0.289
[1]
  pull-down binding Z-score: -0.0364
[2]
  pull-down binding Z-score: -0.0116
[3]
  pull-down binding Z-score: 0.361
[4]
  pull-down binding Z-score: -0.475

## CAGGUAGUUUUGGCAUGACUCUACUG [hsa-mir-20b]
TO-N3 (biotin conjugate)
  pull-down binding Z-score: 0.556
[1]
  pull-down binding Z-score: -0.229
[2]
  pull-down binding Z-score: 0.0561
[3]
  pull-down binding Z-score: 1.44
[4]
  pull-down binding Z-score: -0.719

## GGGACGUGUGAUGCUGUGCUUCCU [hsa-mir-3689f]
TO-N3 (biotin conjugate)
  pull-down binding Z-score: -0.185
[1]
  pull-down binding Z-score: -0.0333
[2]
  pull-down binding Z-score: -0.469
[3]
  pull-down binding Z-score: 0.502
[4]
  pull-down binding Z-score: -0.338

## AACUCUGUUGAAUAUAAAUUGGAAUU [hsa-mir-367]
TO-N3 (biotin conjugate)
  pull-down binding Z-score: -0.572
[1]
  pull-down binding Z-score: 0.00577
[2]
  pull-down binding Z-score: -0.404
[3]
  pull-down binding Z-score: -0.424
[4]
  pull-down binding Z-score: -0.214

## UUUGUUGAAAGAAUAAAUAAACCAACAAG [hsa-mir-1264]
TO-N3 (biotin conjugate)
  pull-down binding Z-score: -0.367
[1]
  pull-down binding Z-score: 0.0773
[2]
  pull-down binding Z-score: -0.424
[3]
  pull-down binding Z-score: -0.365
[4]
  pull-down binding Z-score: -0.724

## GAUAUGCCAUUAUGUGGGUCAUGAGGUGGUGA [hsa-mir-6864]
TO-N3 (biotin conjugate)
  pull-down binding Z-score: 0.738
[1]
  pull-down binding Z-score: 0.416
[2]
  pull-down binding Z-score: 0.197
[3]
  pull-down binding Z-score: 1.54
[4]
  pull-down binding Z-score: 0.225

## CUGUCCCCUGCCACUGGGUGACC [hsa-mir-7114]
TO-N3 (biotin conjugate)
  pull-down binding Z-score: 0.471
[1]
  pull-down binding Z-score: 0.144
[2]
  pull-down binding Z-score: 0.262
[3]
  pull-down binding Z-score: 0.894
[4]
  pull-down binding Z-score: -0.449

## UAAUAGCAAUCCUUAAAUGCCAUUA [hsa-mir-4477b]
TO-N3 (biotin conjugate)
  pull-down binding Z-score: -1.24
[1]
  pull-down binding Z-score: -0.0844
[2]
  pull-down binding Z-score: -0.947
[3]
  pull-down binding Z-score: -1.16
[4]
  pull-down binding Z-score: -0.537

## GGAGAGUAUGGUCACAGCAGCAUCCUCC [hsa-mir-6780a]
TO-N3 (biotin conjugate)
  pull-down binding Z-score: -0.0981
[1]
  pull-down binding Z-score: -0.326
[2]
  pull-down binding Z-score: -0.0714
[3]
  pull-down binding Z-score: 0.36
[4]
  pull-down binding Z-score: 0.186

## GAGUUUGGGCAGCUCAGGCAAACC [hsa-mir-181c]
TO-N3 (biotin conjugate)
  pull-down binding Z-score: 0.492
[1]
  pull-down binding Z-score: 0.132
[2]
  pull-down binding Z-score: -0.201
[3]
  pull-down binding Z-score: 1.12
[4]
  pull-down binding Z-score: 0.335

## CUAUCCUUCCCUUGGAAAAUGAUCUGAG [hsa-mir-4770]
TO-N3 (biotin conjugate)
  pull-down binding Z-score: -0.245
[1]
  pull-down binding Z-score: -0.189
[2]
  pull-down binding Z-score: -0.188
[3]
  pull-down binding Z-score: -5.12e-05
[4]
  pull-down binding Z-score: -0.925

## UGUAUUUUUCAGCAAGGCAAGGGCUUUGAUGUCUUGUA [hsa-mir-8065]
TO-N3 (biotin conjugate)
  pull-down binding Z-score: -0.402
[1]
  pull-down binding Z-score: -0.132
[2]
  pull-down binding Z-score: -0.583
[3]
  pull-down binding Z-score: -0.0538
[4]
  pull-down binding Z-score: -0.314

## CAUGUGGUGGAACGAUGGAAACGGAACAUG [hsa-mir-218-2]
TO-N3 (biotin conjugate)
  pull-down binding Z-score: 0.162
[1]
  pull-down binding Z-score: -0.027
[2]
  pull-down binding Z-score: -0.477
[3]
  pull-down binding Z-score: 1
[4]
  pull-down binding Z-score: 1.07

## UGGUUAGCUUUUUUUUUUUUUUGAGAUGGAGUCUGGCUC [hsa-mir-8086]
TO-N3 (biotin conjugate)
  pull-down binding Z-score: -0.772
[1]
  pull-down binding Z-score: 0.519
[2]
  pull-down binding Z-score: -0.554
[3]
  pull-down binding Z-score: -0.598
[4]
  pull-down binding Z-score: -0.608

## UUUUUGCAUUACGUUCUAUGGCAAAA [hsa-mir-548g]
TO-N3 (biotin conjugate)
  pull-down binding Z-score: -0.182
[1]
  pull-down binding Z-score: -0.00229
[2]
  pull-down binding Z-score: -0.297
[3]
  pull-down binding Z-score: -0.0583
[4]
  pull-down binding Z-score: 1.18

## UGGGAGUGAUCCCAACAGCUGAGCUCCCU [hsa-mir-7106]
TO-N3 (biotin conjugate)
  pull-down binding Z-score: 0.756
[1]
  pull-down binding Z-score: -0.0877
[2]
  pull-down binding Z-score: 0.772
[3]
  pull-down binding Z-score: 0.529
[4]
  pull-down binding Z-score: 0.114

## GGCGGCUCGGAGUACCUCUGCCGCC [hsa-mir-6869]
TO-N3 (biotin conjugate)
  pull-down binding Z-score: 0.666
[1]
  pull-down binding Z-score: -0.0436
[2]
  pull-down binding Z-score: 0.86
[3]
  pull-down binding Z-score: -0.0185
[4]
  pull-down binding Z-score: 0.238

## UUUAGAAAAGAGAAUUCCAAA [hsa-mir-1252]
TO-N3 (biotin conjugate)
  pull-down binding Z-score: -0.315
[1]
  pull-down binding Z-score: -0.206
[2]
  pull-down binding Z-score: -0.294
[3]
  pull-down binding Z-score: -0.676
[4]
  pull-down binding Z-score: -1.48

## GGGUCAGUGGCAGAGCCAGGCAGAUGCUGACCC [hsa-mir-6832]
TO-N3 (biotin conjugate)
  pull-down binding Z-score: 0.45
[1]
  pull-down binding Z-score: 0.267
[2]
  pull-down binding Z-score: 0.349
[3]
  pull-down binding Z-score: 0.72
[4]
  pull-down binding Z-score: 2.93

## CUUGCGGGGCCUUCGCCGCACACAAG [hsa-mir-99b]
TO-N3 (biotin conjugate)
  pull-down binding Z-score: 0.328
[1]
  pull-down binding Z-score: -0.148
[2]
  pull-down binding Z-score: 0.198
[3]
  pull-down binding Z-score: 0.595
[4]
  pull-down binding Z-score: 1.51

## CUUUAGGCAUUCAGAAUAGCUAAAG [hsa-mir-4662b]
TO-N3 (biotin conjugate)
  pull-down binding Z-score: -0.472
[1]
  pull-down binding Z-score: -0.212
[2]
  pull-down binding Z-score: -0.451
[3]
  pull-down binding Z-score: -0.263
[4]
  pull-down binding Z-score: -0.994

## AAGCCCUACGAGAAACUGGGGUUUCUGGA [hsa-mir-765]
TO-N3 (biotin conjugate)
  pull-down binding Z-score: 0.686
[1]
  pull-down binding Z-score: 0.277
[2]
  pull-down binding Z-score: 0.529
[3]
  pull-down binding Z-score: 0.503
[4]
  pull-down binding Z-score: -1.01

## AGUGAAAUAAAGGUCCAUCUCCUGCCUAUUUAUUACUUUGCU [hsa-mir-1243]
TO-N3 (biotin conjugate)
  pull-down binding Z-score: -0.718
[1]
  pull-down binding Z-score: -0.112
[2]
  pull-down binding Z-score: -0.671
[3]
  pull-down binding Z-score: -0.5
[4]
  pull-down binding Z-score: -1.12

## CUGCUGCCGAUUCUGCACCAG [hsa-mir-4756]
TO-N3 (biotin conjugate)
  pull-down binding Z-score: -0.301
[1]
  pull-down binding Z-score: -0.46
[2]
  pull-down binding Z-score: -0.432
[3]
  pull-down binding Z-score: 0.461
[4]
  pull-down binding Z-score: -1.02

## GAGCUGGAAGGAGUGGGCCUGGCUC [hsa-mir-6847]
TO-N3 (biotin conjugate)
  pull-down binding Z-score: 0.634
[1]
  pull-down binding Z-score: 0.387
[2]
  pull-down binding Z-score: 0.4
[3]
  pull-down binding Z-score: 1.45
[4]
  pull-down binding Z-score: 4.26

## UCCAACCUGAAAUCCUUCUGUAGGUUGAG [hsa-mir-5702]
TO-N3 (biotin conjugate)
  pull-down binding Z-score: -0.245
[1]
  pull-down binding Z-score: -0.273
[2]
  pull-down binding Z-score: -0.291
[3]
  pull-down binding Z-score: 0.0189
[4]
  pull-down binding Z-score: 1.18

## GUGUAGAGGCGGAGCACAG [hsa-mir-1471]
TO-N3 (biotin conjugate)
  pull-down binding Z-score: 0.847
[1]
  pull-down binding Z-score: 0.381
[2]
  pull-down binding Z-score: 0.151
[3]
  pull-down binding Z-score: 1.46
[4]
  pull-down binding Z-score: 0.507

## GCUACUGUCUGCACCUGUCACUAGCAGU [hsa-mir-130a]
TO-N3 (biotin conjugate)
  pull-down binding Z-score: 1.12
[1]
  pull-down binding Z-score: -0.0477
[2]
  pull-down binding Z-score: -0.279
[3]
  pull-down binding Z-score: 1.58
[4]
  pull-down binding Z-score: -1.49

## UGCUUUUUGUUUCUAACAAAGCA [hsa-mir-4679-2]
TO-N3 (biotin conjugate)
  pull-down binding Z-score: 0.0252
[1]
  pull-down binding Z-score: -0.407
[2]
  pull-down binding Z-score: 0.272
[3]
  pull-down binding Z-score: -1.25
[4]
  pull-down binding Z-score: -0.591

## CACAGUUCUGG [hsa-mir-761]
TO-N3 (biotin conjugate)
  pull-down binding Z-score: 0.102
[1]
  pull-down binding Z-score: -0.473
[2]
  pull-down binding Z-score: 0.292
[3]
  pull-down binding Z-score: 0.18
[4]
  pull-down binding Z-score: 0.647

## CUCUGAUGUAAUUAGGU [hsa-mir-563]
TO-N3 (biotin conjugate)
  pull-down binding Z-score: -0.642
[1]
  pull-down binding Z-score: -0.321
[2]
  pull-down binding Z-score: -0.504
[3]
  pull-down binding Z-score: -0.397
[4]
  pull-down binding Z-score: -1.2

## CUGAUUGUCAUAUGUCGUUUGUGGGAUCCG [hsa-mir-340]
TO-N3 (biotin conjugate)
  pull-down binding Z-score: -0.333
[1]
  pull-down binding Z-score: -0.336
[2]
  pull-down binding Z-score: -0.605
[3]
  pull-down binding Z-score: 0.334
[4]
  pull-down binding Z-score: -0.698

## GCUGAAACACAGUUGGUUUGUGUACACUGGC [hsa-mir-24-2]
TO-N3 (biotin conjugate)
  pull-down binding Z-score: -0.193
[1]
  pull-down binding Z-score: -0.521
[2]
  pull-down binding Z-score: -0.415
[3]
  pull-down binding Z-score: -0.00258
[4]
  pull-down binding Z-score: 0.212

## GCAGCCAGUCCUGUCUCACCGC [hsa-mir-6812]
TO-N3 (biotin conjugate)
  pull-down binding Z-score: 0.14
[1]
  pull-down binding Z-score: -0.105
[2]
  pull-down binding Z-score: -0.19
[3]
  pull-down binding Z-score: 1.08
[4]
  pull-down binding Z-score: -0.666

## ACAGGUAGUGGCCACAGUGAGAAAGCUGGCCUGUCCUUCUGC [hsa-mir-4314]
TO-N3 (biotin conjugate)
  pull-down binding Z-score: 0.245
[1]
  pull-down binding Z-score: 0.0324
[2]
  pull-down binding Z-score: -0.00864
[3]
  pull-down binding Z-score: 0.681
[4]
  pull-down binding Z-score: -0.00957

## CAAGGGCUCUCCUGAAAGGACAGUAGAGCCCUUG [hsa-mir-4776-1]
TO-N3 (biotin conjugate)
  pull-down binding Z-score: 1.18
[1]
  pull-down binding Z-score: -0.0552
[2]
  pull-down binding Z-score: 1.31
[3]
  pull-down binding Z-score: -0.109
[4]
  pull-down binding Z-score: 0.88
